Results published in patent US20100158808A1, “Altered Activity of Toll-Like Receptors” (priority 2003, published 2010).

Target: T1, TLR4 (Mus musculus, UniProt Q9JHF9+Q9QUK6)
T1 sequence (Q9QUK6 26-835): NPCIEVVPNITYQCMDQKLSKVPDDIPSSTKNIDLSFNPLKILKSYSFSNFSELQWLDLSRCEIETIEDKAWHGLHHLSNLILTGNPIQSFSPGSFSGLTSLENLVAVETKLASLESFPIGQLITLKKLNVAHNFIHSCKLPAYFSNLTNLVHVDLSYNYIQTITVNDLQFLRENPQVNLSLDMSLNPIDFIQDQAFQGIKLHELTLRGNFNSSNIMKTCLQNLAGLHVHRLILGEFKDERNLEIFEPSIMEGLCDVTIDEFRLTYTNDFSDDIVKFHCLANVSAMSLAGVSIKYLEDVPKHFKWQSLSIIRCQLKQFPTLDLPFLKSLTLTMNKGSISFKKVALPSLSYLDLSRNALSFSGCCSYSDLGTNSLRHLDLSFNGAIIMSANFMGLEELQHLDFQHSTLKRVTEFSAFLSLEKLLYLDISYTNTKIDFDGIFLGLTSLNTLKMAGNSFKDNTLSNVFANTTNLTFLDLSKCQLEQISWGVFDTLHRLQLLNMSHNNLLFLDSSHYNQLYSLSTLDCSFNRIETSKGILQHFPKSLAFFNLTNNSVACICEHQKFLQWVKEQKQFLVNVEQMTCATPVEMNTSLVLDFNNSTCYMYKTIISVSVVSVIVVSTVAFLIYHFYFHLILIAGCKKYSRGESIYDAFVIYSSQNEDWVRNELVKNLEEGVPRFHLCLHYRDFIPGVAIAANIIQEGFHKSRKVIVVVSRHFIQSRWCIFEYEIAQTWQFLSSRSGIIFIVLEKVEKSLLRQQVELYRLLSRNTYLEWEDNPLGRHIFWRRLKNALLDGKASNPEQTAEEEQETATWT
T1 sequence (Q9JHF9 19-160): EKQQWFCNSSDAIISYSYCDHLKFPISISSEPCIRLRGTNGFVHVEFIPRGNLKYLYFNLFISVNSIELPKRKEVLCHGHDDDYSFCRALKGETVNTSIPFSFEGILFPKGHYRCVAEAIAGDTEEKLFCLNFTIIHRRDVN
Assay: NFκB-luciferase reporter assay in HEK 293 cells stably expressing TLR4, MD2 and/or CD14
Format: cell-based, murine
Set-up: expressed in transfected cells; host or cells: HEK 293
Experimental: Model ECM environment. Tissue culture plates were coated with ECM as follows. PAEC were seeded into 6-well (3×10^5 cells/well), 24-well (5×10^4 cells/well) or 100 mm (2×10^5 cells) fibronectin-coated tissue culture plates (BD Biosciences, San Jose, Calif.) in DMEM (Invitrogen) containing 10% fetal bovine serum supplemented with penicillin and streptomycin and 4% w/v of Dextran 40. The cell cultures were incubated at 37° C. in 5% CO2 humidified atmosphere for seven days and were supplemented with […] on day three and day five. After 7 days, endothelial cells were washed once with phosphate buffered saline (PBS) and lysed by exposure to 0.5% w/v Triton X-100 and 20 mM NH4OH in PBS (pH 7.4) at 37° C. for 20 minutes (Bonifacino, 1998). The wells were then washed 4 times with PBS (pH 7.4) and inspected microscopically to ensure removal of the cells. Plates were used immediately or were stored in PBS (pH 7.4) with […] at 4° C.
HEK 293 cells were stably transfected with the TLR4 and MD2 or CD14 expression plasmids using Superfect (Qiagen, Valencia, Calif.) following the manufacturer's instructions. HEK 293 cells expressing TLR4 and MD2 or CD14 were obtained by culturing the transfected cells with appropriate antibiotic selection medium, and were cloned by limiting dilution in the selection medium. HEK 293 cells expressing TLR4, MD2 and CD14 were generated by transfecting HEK 293 cells that expressed TLR4 and MD2 with the CD14 expression plasmid, and selecting clones using appropriate antibiotic containing medium. Cell lines expressing TLR4 and MD2 and/or CD14 were then maintained in DMEM supplemented with 10% fetal bovine serum and the appropriate selection antibiotics. Control cell lines were transfected with empty expression vectors and incubated in selection conditions as described above. Selected clones were tested for cell surface expression of the TLR4/MD2 complex and CD14 by flow cytometry using monoclonal antibodies specific for the TLR4/MD2 complex or CD14.
NFκB-luciferase reporter assays. Activation of NFκB was measured using a NFκB-luciferase reporter assay. HEK 293 cell lines stably expressing TLR4, MD2 and/or CD14, or control cells were seeded into 24 well tissue culture plates (2×10^5 cells/well) in 1.0 ml DMEM containing 10% fetal bovine serum and penicillin and streptomycin. The cells were allowed to adhere to the culture wells at 37° C. overnight and were then transfected with […] NFκB-firefly-luciferase using Superfect Transfection Reagent (Qiagen). Following transfection, the cells were washed once with phosphate buffered saline and cultured for 24 hours at 37° C. in 1.0 ml DMEM containing 0.5% fetal bovine serum. After various treatments, the culture medium was aspirated and the cells were washed once with PBS. The cells were lysed in […] Passive Lysis Buffer (Promega) with rocking at room temperature for 15 minutes. Renilla- and Firefly-luciferase were assayed simultaneously using the Dual-Luciferase Reporter Assay System (Promega) and a TD-20/20 luminometer (Turner Designs, Sunnyvale, Calif.). Activation of NFκB was reported as a ratio of the firefly luciferase activity to the constitutively expressed Renilla luciferase internal control, and is the mean of triplicate wells.
To determine whether and under what conditions HS stimulates TLR4, various combinations of TLR4, MD2 and CD14, components of the putative TLR4 receptor complex, were stably expressed in HEK 293 cells and the effect of HS on TLR4 signaling in the transfected cells was examined (FIG. 1). The HEK 293 cells expressing receptor components were transiently transfected with a NFκB-firefly luciferase reporter construct along with a Renilla-luciferase internal control reporter construct. […]

[1] = HEK 293 cells lacking TLR4 and MD2 or CD14
[2] = HEK 293 cells that expressed TLR4, MD2, and CD14

Substance | NFκB reporter response to elastase alone (HEK/TLR4(+) cells cultured in ECM, elastase 0.1 U/ml, no HS) | NFκB reporter response to elastase alone (HEK/TLR4(+) cells cultured on ECM, elastase 0.3 U/ml) | Activation in response to HS relative to cells not treated with elastase (HEK/TLR4(+) cells on ECM, elastase 0.1 U/ml plus HS) [fold] | Activation of reporter expression after elastase pre-treatment and treatment with HS or LPS (HEK/TLR4(+) cells on PAEC ECM, versus control cells not pre-treated) | NFκB reporter response to elastase (HEK/TLR4(+) cells on fibronectin, elastase 0.1 or 0.3 U/ml) | Activation of NFκB-luciferase reporter [1] | Activation of NFκB-luciferase reporter [2] | Effect of nitrous acid treatment on ability to stimulate TLR4 (HEK/TLR4(+) cells, nitrous acid pH 4.0 or pH 1.5)
elastase: pancreatic elastase (Calbiochem; type IV porcine pancreatic elastase, Sigma-Aldrich), protease that cleaves ECM proteins | did not respond | responded even without addition of HS | 2 | greater | did not respond to either concentration of elastase | – | – | –
heparan sulfate [HS] | – | – | – | – | – | did not respond | activated | –
lipopolysaccharide [LPS] | – | – | – | – | – | did not respond | activated | did not affect
